Columns and labels:
[1] = target: T1, periplasmic N-domain of RcpA (RcpAN) (Pseudomonas aeruginosa, UniProt Q9HW96 28-115); experiment: SEC-MALS; co-expressed (two plasmids) and co-purified RcpC_(33-303)-RcpAN complex; 50 uL at 2 mg/mL on a WTC 015S5 column, 50 mM HEPES, 150 mM NaCl, 200 mM arginine, 1 mM TCEP, pH 8.0; details: both partners purified
T1 construct: RcpA outer membrane secretin, Pseudomonas aeruginosa, periplasmic N-domain (9.7 kDa, small globular Ig domain fold); Gene codon optimised, in pET28a; also called His-RcpAN; His-RspAN; source: E. coli BL21 (DE3), purified (Ni-NTA, SEC); also co-expressed with RcpC constructs and co-purified
T1 sequence: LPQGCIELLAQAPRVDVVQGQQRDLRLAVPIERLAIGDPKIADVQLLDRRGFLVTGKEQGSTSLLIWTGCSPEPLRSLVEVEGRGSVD

[2] = target: the molecule itself; experiment: SEC-MALS; single purified protein; 50 uL at 2 mg/mL on a WTC 015S5 column, 50 mM HEPES, 150 mM NaCl, 200 mM arginine, 1 mM TCEP, pH 8.0, 0.8 mL/min

B1: RcpC periplasmic domain (RcpC_(33-303)) (domain or fragment)
chain: NAHAPSVAPASATVDASLEKLERKPVLVASRDLPALAVIGRDDLSVELLRTAPVGSYDRPEALLGKRVWVAVPAGSILSAATLEPGGPLARTIRPDERAMAIAVDEVVGGGGFVLPGDYVDVMLFVRDERDGESTPLAQLVLPGVRVLTYGERIAVGSDGQDRSNQEKDPRPPRTAVLAVPEDGVARLMLASQAGSLRLAIRSKDEELYRREQEGALLQASLGAPSAALSLDQLLERRKPTAPSVRSAAPRVPVANGVTVYRGSAMTHEAP
notes: RcpC, Pseudomonas aeruginosa, residues 33-303 of the full-length protein (RcpC_(1-303)); lacks the N-terminal transmembrane helix; holds D1, D2, linker L3 and the C-terminal β-hairpin; Gene codon optimised, in pET21a; also called RcpCΔN; periplasmic region of RcpC; source: E. coli BL21 (DE3), purified (Ni-NTA, SEC); also co-expressed with RcpAN and co-purified; not shown: His tag (from the Ni-NTA …)
- stoichiometry N [1]: 2 RcpC per RcpA (12:6 RcpC:RcpA)
- stoichiometry N [2]: 12 copies
